# Laboratory results from paper PMC7593309, “Structural insights into Arabidopsis ethylene response factor 96 with an extended N-terminal binding to GCC box”.
# B1: GCC11 probe (fEMSA) (dsDNA)
# DNA 1: TAGCCGCCAGC
# DNA 2: GCTGGCGGCTA
# B2: GCC11 (crystal) (dsDNA)
# DNA 1: TAGCCGCCAGC
# DNA 2: GCTGGCGGCTA
# B3: GCC12 (dsDNA)
# DNA 1: GTAGCCGCCAGC
# DNA 2: GCTGGCGGCTAC
# Experiments:
# AtERF96 WT [1] = biological target: T1, AtERF96 WT (Arabidopsis thaliana, UniProt Q9LSX0 1-131); assay: EMSA; fEMSA: 30 mM HEPES pH 7.4, 62.5 mM NaCl, 5% glycerol, 30 min RT, gel at 4 C; FP: 30 mM HEPES pH 7.4, 250 mM NaCl, 10% glycerol, 10 nM probe final (20 nM mixed 1:1); conditions: protein: recombinant; tags: N-terminal 6xHis (pET28a); label: 5'-fluorescein on forward strand; blunt
# T1 sequence (Q9LSX0 whole entry): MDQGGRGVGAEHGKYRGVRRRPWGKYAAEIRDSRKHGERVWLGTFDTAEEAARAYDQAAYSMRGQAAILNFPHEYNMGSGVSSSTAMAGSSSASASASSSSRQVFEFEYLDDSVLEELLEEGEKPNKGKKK
# AtERF96 WT [2] = biological target: T1, AtERF96 WT; assay: X-ray crystallography; 1.76 A; fEMSA: 30 mM HEPES pH 7.4, 62.5 mM NaCl, 5% glycerol, 30 min RT, gel at 4 C; FP: 30 mM HEPES pH 7.4, 250 mM NaCl, 10% glycerol, 10 nM probe final (20 nM mixed 1:1); conditions: protein: recombinant; tags: N-terminal 6xHis (pET28a); blunt
# AtERF96 WT [3] = biological target: T1, AtERF96 WT; assay: fluorescence polarization; two-site fit (KdHi, KdLo); fEMSA: 30 mM HEPES pH 7.4, 62.5 mM NaCl, 5% glycerol, 30 min RT, gel at 4 C; FP: 30 mM HEPES pH 7.4, 250 mM NaCl, 10% glycerol, 10 nM probe final (20 nM mixed 1:1); conditions: protein: recombinant; tags: N-terminal 6xHis (pET28a); label: 5'-fluorescein on forward strand
binder,measurement,setting,value
B1,binding result,AtERF96 WT [1],binds
B2,binding result,AtERF96 WT [2],binds
B3,binding result,AtERF96 WT [3],binds
